Test results from PMC5009744.

Tests used:
[1] = target: eIF5B Domain-4 (eIF5B-D4) (human); assay: fluorescence polarisation
[2] = target: eIF5B-D34 (eIF5B domains D3 and D4) (human); assay: fluorescence polarisation
[3] = target: fluorescein-labeled synthetic eIF1A-CT7 peptide (human); assay: fluorescence polarisation
[4] = target: eIF1AΔC (eIF1A missing the entire 26-residue C-terminal tail) (human); assay: NMR titration

Chain of eIF5B-D34 (eIF5B domains D3 and D4) (human) (O60841 whole entry, the tested form may be a part): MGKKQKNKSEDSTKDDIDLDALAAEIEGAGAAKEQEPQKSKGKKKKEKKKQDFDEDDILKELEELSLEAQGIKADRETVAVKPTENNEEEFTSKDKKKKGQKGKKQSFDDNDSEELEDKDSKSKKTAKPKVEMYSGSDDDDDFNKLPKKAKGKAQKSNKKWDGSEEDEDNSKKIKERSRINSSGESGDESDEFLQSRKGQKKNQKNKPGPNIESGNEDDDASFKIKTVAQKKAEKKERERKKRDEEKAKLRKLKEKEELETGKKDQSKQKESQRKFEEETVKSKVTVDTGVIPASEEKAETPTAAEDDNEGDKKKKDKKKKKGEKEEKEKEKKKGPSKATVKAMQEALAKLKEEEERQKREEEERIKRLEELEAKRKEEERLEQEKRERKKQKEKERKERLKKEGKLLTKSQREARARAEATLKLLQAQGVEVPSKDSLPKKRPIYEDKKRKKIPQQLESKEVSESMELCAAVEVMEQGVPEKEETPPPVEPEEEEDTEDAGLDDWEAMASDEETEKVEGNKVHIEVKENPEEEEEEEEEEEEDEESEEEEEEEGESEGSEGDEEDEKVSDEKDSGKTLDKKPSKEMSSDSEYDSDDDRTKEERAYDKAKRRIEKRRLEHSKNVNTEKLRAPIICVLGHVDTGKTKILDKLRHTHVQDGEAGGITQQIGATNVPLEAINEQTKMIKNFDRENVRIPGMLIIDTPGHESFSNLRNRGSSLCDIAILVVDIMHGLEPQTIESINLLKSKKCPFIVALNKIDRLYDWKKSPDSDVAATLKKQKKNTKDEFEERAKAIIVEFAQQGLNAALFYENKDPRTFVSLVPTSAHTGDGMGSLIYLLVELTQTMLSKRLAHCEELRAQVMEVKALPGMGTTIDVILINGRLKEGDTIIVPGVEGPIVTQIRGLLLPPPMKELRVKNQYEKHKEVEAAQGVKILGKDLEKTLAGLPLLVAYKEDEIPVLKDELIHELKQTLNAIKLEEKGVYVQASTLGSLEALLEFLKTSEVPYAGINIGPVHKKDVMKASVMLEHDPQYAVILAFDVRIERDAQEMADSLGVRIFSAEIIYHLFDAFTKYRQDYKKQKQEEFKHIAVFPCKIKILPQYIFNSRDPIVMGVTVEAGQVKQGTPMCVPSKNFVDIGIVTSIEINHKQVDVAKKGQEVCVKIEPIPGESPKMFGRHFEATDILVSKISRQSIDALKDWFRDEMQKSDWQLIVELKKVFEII
Chain of eIF5B Domain-4 (eIF5B-D4) (human) (O60841 whole entry, the tested form may be a part): as above

Kd [1]	Kd [2]	Kd [3]	Kd [4]	Substance
39 µM	41 µM			eukaryotic translation initiation factor 1A (eIF1A), full-length (from UniProt P47813 1-144) (natural protein)
		27 µM		eIF5B-D34 (eIF5B domains D3 and D4) (domain or fragment)
			< 1000 µM	eIF5B Domain-3 (eIF5B-D3) (domain or fragment)

Further lines, the substance ahead of its results:

Substance	Kd [1]	Kd [2]	Kd [3]	Kd [4]
eIF1A C-terminal tail (eIF1A-CTT), 26 residues (peptide)	12 µM	18 µM		
eIF5B Domain-4 (eIF5B-D4) (domain or fragment)			12 µM	
eIF1A-CT16 (the 16 C-terminal residues in eIF1A) (peptide)	12 µM	23 µM		
